B1: ATG18 (natural protein, S. cerevisiae, UniProt P43601 1-500, looked up)
chain: MSDSSPTINFINFNQTGTCISLGTSKGFKIFNCEPFGKFYSEDSGGYAIVEMLFSTSLLALVGIGDQPALSPRRLRIINTKKHSIICEVTFPTSILSVKMNKSRLVVLLQEQIYIYDINTMRLLHTIETNPNPRGLMAMSPSVANSYLVYPSPPKVINSEIKAHATTNNITLSVGGNTETSFKRDQQDAGHSDISDLDQYSSFTKRDDADPTSSNGGNSSIIKNGDVIVFNLETLQPTMVIEAHKGEIAAMAISFDGTLMATASDKGTIIRVFDIETGDKIYQFRRGTYATRIYSISFSEDSQYLAVTGSSKTVHIFKLGHSMSNNKLDSDDSNMEEAAADDSSLDTTSIDALSDEENPTRLAREPYVDASRKTMGRMIRYSSQKLSRRAARTLGQIFPIKVTSLLESSRHFASLKLPVETNSHVMTISSIGSPIDIDTSEYPELFETGNSASTESYHEPVMKMVPIRVVSSDGYLYNFVMDPERGGDCLILSQYSILMD
B2: human WIPI4 (natural protein, UniProt Q9Y484 1-360, looked up)
chain: MTQQPLRGVTSLRFNQDQSCFCCAMETGVRIYNVEPLMEKGHLDHEQVGSMGLVEMLHRSNLLALVGGGSSPKFSEISVLIWDDAREGKDSKEKLVLEFTFTKPVLSVRMRHDKIVIVLKNRIYVYSFPDNPRKLFEFDTRDNPKGLCDLCPSLEKQLLVFPGHKCGSLQLVDLASTKPGTSSAPFTINAHQSDIACVSLNQPGTVVASASQKGTLIRLFDTQSKEKLVELRRGTDPATLYCINFSHDSSFLCASSDKGTVHIFALKDTRLNRRSALARVGKVGPMIGQYVDSQWSLASFTVPAESACICAFGRNTSKNVNSVIAICVDGTFHKYVFTPDGNCNREAFDVYLDICDDDDF

Assays:
S. cerevisiae ATG2 = S. cerevisiae ATG2 (S. cerevisiae, UniProt P53855 1-1592); assay: negative-stain EM
Chain of S. cerevisiae ATG2 (P53855 whole entry): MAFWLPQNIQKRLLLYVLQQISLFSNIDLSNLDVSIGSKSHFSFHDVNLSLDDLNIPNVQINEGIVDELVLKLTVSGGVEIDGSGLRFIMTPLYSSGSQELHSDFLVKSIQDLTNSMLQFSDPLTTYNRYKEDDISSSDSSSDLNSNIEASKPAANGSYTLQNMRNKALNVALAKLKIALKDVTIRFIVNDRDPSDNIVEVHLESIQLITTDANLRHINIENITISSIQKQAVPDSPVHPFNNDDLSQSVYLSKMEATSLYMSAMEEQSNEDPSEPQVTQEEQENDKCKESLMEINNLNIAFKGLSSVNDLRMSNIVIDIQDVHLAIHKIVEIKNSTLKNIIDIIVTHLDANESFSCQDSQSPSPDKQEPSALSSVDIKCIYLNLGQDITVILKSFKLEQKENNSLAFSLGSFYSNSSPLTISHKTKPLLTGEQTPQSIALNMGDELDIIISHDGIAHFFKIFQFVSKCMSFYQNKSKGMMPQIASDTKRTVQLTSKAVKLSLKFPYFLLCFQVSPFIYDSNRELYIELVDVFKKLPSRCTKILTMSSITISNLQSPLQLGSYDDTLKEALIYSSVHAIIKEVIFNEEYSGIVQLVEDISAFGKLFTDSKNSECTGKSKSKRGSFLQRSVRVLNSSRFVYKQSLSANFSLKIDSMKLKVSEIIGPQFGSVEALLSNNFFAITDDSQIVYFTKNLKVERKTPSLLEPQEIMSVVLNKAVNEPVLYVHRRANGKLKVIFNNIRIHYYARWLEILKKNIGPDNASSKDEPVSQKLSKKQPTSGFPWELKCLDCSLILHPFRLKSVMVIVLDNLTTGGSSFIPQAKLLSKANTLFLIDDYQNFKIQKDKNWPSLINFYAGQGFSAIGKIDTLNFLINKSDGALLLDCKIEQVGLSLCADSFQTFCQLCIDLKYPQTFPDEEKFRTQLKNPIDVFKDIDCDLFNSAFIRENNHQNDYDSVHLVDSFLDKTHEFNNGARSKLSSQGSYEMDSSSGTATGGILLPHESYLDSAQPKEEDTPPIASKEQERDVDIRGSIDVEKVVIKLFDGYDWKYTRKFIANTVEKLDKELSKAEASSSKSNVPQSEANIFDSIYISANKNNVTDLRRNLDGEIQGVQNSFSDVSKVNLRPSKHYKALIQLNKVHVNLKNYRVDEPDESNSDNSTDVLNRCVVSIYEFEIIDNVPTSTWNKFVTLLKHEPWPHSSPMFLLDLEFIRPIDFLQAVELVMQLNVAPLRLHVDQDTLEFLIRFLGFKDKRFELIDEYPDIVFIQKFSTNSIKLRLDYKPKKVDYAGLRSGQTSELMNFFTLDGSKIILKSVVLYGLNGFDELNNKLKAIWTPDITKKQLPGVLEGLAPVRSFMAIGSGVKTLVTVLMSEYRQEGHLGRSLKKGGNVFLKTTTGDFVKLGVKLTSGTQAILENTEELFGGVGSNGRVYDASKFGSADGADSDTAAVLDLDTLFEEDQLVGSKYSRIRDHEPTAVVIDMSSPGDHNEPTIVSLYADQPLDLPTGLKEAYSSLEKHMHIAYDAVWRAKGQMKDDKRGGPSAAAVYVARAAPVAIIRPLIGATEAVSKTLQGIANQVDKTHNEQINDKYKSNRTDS

human WIPI4 = molecular target: B2; assay: SEC
human ATG2A = human ATG2A (human, UniProt Q2TAZ0 1-1938); assay: negative-stain EM
Chain of human ATG2A (Q2TAZ0 whole entry): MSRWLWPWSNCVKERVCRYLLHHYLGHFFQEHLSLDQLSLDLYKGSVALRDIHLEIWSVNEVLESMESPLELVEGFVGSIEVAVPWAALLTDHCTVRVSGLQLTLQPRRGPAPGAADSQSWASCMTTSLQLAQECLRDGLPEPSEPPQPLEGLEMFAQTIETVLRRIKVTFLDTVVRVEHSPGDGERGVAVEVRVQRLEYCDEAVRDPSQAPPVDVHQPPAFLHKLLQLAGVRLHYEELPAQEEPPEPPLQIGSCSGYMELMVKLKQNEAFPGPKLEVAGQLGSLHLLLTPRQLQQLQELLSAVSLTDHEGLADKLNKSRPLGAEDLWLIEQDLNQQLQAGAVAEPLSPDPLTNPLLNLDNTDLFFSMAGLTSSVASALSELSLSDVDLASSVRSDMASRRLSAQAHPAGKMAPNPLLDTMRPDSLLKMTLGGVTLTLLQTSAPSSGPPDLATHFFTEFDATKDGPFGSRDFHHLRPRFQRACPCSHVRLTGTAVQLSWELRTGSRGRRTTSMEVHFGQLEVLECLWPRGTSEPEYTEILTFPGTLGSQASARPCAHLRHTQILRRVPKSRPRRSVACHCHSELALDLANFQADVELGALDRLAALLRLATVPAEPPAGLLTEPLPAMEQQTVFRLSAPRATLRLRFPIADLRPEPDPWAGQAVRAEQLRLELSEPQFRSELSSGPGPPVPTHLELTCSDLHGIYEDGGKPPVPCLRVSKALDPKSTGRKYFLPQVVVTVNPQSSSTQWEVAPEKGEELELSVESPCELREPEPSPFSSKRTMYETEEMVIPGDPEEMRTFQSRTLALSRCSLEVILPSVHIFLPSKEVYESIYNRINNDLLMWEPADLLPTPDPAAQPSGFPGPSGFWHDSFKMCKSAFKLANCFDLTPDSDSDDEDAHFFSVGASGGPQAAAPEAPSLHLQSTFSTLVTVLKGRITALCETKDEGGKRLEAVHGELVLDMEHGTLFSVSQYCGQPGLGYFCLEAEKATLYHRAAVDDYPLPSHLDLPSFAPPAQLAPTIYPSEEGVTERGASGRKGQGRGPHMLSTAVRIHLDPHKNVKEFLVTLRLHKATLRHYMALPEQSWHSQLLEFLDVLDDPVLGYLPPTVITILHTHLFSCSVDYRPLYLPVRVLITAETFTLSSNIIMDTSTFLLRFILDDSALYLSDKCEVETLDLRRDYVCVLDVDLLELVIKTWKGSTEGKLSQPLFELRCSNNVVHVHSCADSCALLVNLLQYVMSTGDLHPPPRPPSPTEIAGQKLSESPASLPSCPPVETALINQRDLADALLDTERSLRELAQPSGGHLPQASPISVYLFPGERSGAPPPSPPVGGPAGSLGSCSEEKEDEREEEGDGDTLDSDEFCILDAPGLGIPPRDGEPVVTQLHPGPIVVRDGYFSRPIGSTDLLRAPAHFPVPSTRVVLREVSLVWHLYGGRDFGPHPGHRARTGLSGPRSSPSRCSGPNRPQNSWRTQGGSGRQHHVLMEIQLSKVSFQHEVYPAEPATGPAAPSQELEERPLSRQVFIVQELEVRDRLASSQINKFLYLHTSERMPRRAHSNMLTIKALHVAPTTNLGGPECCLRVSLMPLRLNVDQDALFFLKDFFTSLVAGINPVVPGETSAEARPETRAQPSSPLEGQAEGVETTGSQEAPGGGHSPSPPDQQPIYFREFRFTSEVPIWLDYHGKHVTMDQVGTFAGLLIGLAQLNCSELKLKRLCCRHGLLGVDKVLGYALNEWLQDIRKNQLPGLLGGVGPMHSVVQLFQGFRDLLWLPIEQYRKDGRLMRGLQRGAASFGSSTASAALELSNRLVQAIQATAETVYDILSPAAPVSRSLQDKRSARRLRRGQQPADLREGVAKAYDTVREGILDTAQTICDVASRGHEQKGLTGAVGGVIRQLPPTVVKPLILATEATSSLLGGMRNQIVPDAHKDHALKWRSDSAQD

## B1
S. cerevisiae ATG2
  binding result: binds

## DSDEFCILDAPGLGIPPRDGEPVVTQLHPGPIVVRDGYFSRPIGSTD (domain or fragment, human, UniProt Q2TAZ0 1358-1404, looked up) [6xHis-GB1-ATG2A (1358-1404)]
Human WIPI4
  binding result: binds

## B2
Human ATG2A
  stoichiometry N: 1
